This note sets out measurements from publication PMC3344845, “Structure of Bradavidin – C-Terminal Residues Act as Intrinsic Ligands” (PLoS ONE, 2012).

The target of experiment [1] is core-bradavidin (Bradyrhizobium japonicum). The experiment is described as follows: ITC; core-bradavidin in the cell, ligand (Brad-tag or Brad-tag–EGFP) in the syringe, 15°C, 50 mM sodium phosphate pH 7.0, 100 mM NaCl; n is the stoichiometry per subunit. Background: Isothermal titration calorimetry measures the heat released or taken up as one component is titrated into another.

The target is the same in experiment [2]. Described as above. The source holds these as a separate data set.
The target is the same in experiment [3]. As to the kind of experiment: ITC; core-bradavidin, avidin, streptavidin or rhizavidin in the cell, Brad-tag in the syringe, 40°C, 50 mM sodium phosphate pH 7.0, 100 mM NaCl; n is the stoichiometry per subunit.

SEKLSNTK [Brad-tag (synthetic peptide SEKLSNTK)] registered a dH in experiment [1] of 1.1 kcal/mol. In experiment [2], this molecule yielded an equilibrium dissociation constant (Kd) of 25 µM, a dH of 1.7 kcal mol^–1 and a stoichiometry N of 0.94. Moreover, in experiment [3], the Kd is 26 µM, the dH was -4.4 kcal mol^–1 and the stoichiometry N came to 0.62.

The term Kd denotes the free concentration of one partner at which half of the binding sites on the other are occupied at equilibrium, for simple one-to-one binding. By stoichiometry N is commonly meant the number of molecules, sites or subunits per partner or assembly.
